In the assay the target is GST-SIRT6 K33R (human, UniProt Q8N6T7 1-355, K33R). Nature of the assay: pull-down.
Sequence of GST-SIRT6 K33R (Q8N6T7 whole entry K33R): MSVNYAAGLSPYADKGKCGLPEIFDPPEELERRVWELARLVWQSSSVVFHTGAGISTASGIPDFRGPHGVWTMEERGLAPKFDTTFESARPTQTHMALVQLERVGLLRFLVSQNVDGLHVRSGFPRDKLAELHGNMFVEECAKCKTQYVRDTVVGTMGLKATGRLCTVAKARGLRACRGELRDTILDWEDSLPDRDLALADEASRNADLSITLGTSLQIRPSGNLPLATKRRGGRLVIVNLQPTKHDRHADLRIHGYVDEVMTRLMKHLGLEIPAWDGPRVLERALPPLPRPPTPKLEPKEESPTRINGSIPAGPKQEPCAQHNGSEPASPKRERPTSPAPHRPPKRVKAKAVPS

B1: biotin-labeled C-terminal γH2AX peptide (peptide)
peptide: GKKATQASQEY
On to B1, for which the binding result was “binds”.
